B1: peptide HD2 (from tick evasin EVA4) / CCL1 (biotinylated, synthetic) (parent complex)
chain 1: EEDDYTAYAPLTCYFT
chain 2: KSMQVPFSRCCFSFAEQEIPLRAILCYRNTSSICSNEGLIFKLKRGKEACALDTVGWVQRHRKMLRHCPSKRK

Variants of: B1

Variant	enrichment
chain 1 EEDDYTAPAPLTCYFT [chain 1 Y8P]	-6.09 log2 (difference from the parental peptide)
chain 1 EEDDYTAAAPLTCYFT [chain 1 Y8A]	-8 log2 (difference from the parental peptide)
chain 1 EEDDYTAYAPLTCYFP [chain 1 T16P]	1.67 log2 (difference from the parental peptide)
chain 1 EEDDYTAYAPLTCYFW [chain 1 T16W]	-0.962 log2 (difference from the parental peptide)
chain 1 EEDDYTAYAPLTCYFI [chain 1 T16I]	-0.756 log2 (difference from the parental peptide)
chain 1 EEDDYTAYAPLTCYFV [chain 1 T16V]	-0.26 log2 (difference from the parental peptide)
chain 1 EEDDYTAYAPLTCYFK [chain 1 T16K]	-1.01 log2 (difference from the parental peptide)
chain 1 EEDDYTAYAPLTCYFD [chain 1 T16D]	2.85 log2 (difference from the parental peptide)
chain 1 EEDDYTAYAPLTCYFR [chain 1 T16R]	-4.51 log2 (difference from the parental peptide)
chain 1 EEDDYTAYAPLTCYFH [chain 1 T16H]	-0.232 log2 (difference from the parental peptide)
chain 1 EEDDYTAYAPLTCYFE [chain 1 T16E]	1.93 log2 (difference from the parental peptide)
chain 1 EEDDYTAYAPLTCYFM [chain 1 T16M]	0.0746 log2 (difference from the parental peptide)
chain 1 EEDDYTAYAPLTCYDT [chain 1 F15D]	-3.07 log2 (difference from the parental peptide)
chain 1 EEDDYTAYAPLTCYCT [chain 1 F15C]	-6.07 log2 (difference from the parental peptide)
chain 1 EEDDYTAYAPLTCYTT [chain 1 F15T]	1.39 log2 (difference from the parental peptide)
chain 1 EEDDYTAYAPLTCYWT [chain 1 F15W]	-0.244 log2 (difference from the parental peptide)
chain 1 EEDDYTAYAPLTCYKT [chain 1 F15K]	-1.11 log2 (difference from the parental peptide)
chain 1 EEDDYTAYAPLTCYRT [chain 1 F15R]	-0.358 log2 (difference from the parental peptide)
chain 1 EEDDYTAYAPLTCYLT [chain 1 F15L]	2.03 log2 (difference from the parental peptide)
chain 1 EEDDYTAYAPLTCYYT [chain 1 F15Y]	1.84 log2 (difference from the parental peptide)
chain 1 EEDDYTAYAPLTCYGT [chain 1 F15G]	-3.15 log2 (difference from the parental peptide)
chain 1 EEDDFTAYAPLTCYFT [chain 1 Y5F]	-4.11 log2 (difference from the parental peptide)
chain 1 EEDDWTAYAPLTCYFT [chain 1 Y5W]	0.92 log2 (difference from the parental peptide)

Variant	enrichment
chain 1 EEDDYTAYRPLTCYFT [chain 1 A9R]	-5.43 log2 (difference from the parental peptide)
chain 1 EEDDYTAYPPLTCYFT [chain 1 A9P]	-5.04 log2 (difference from the parental peptide)
chain 1 EEDDYTAYIPLTCYFT [chain 1 A9I]	-6.64 log2 (difference from the parental peptide)
chain 1 EEDDYTAYFPLTCYFT [chain 1 A9F]	-5.95 log2 (difference from the parental peptide)
chain 1 EEDDYTAYLPLTCYFT [chain 1 A9L]	-6.22 log2 (difference from the parental peptide)
chain 1 EEDDYTAYGPLTCYFT [chain 1 A9G]	-5.92 log2 (difference from the parental peptide)
chain 1 EEDDYTAYMPLTCYFT [chain 1 A9M]	-5.21 log2 (difference from the parental peptide)
chain 1 EEDDYTAYNPLTCYFT [chain 1 A9N]	-5.08 log2 (difference from the parental peptide)
chain 1 EEDDYTAYSPLTCYFT [chain 1 A9S]	-1.71 log2 (difference from the parental peptide)
chain 1 EEDDYTAYAALTCYFT [chain 1 P10A]	-5.62 log2 (difference from the parental peptide)
chain 1 EEDDYTAYADLTCYFT [chain 1 P10D]	-1.68 log2 (difference from the parental peptide)
chain 1 EEDDYTAYAMLTCYFT [chain 1 P10M]	-6.14 log2 (difference from the parental peptide)
chain 1 EEDDYTAYALLTCYFT [chain 1 P10L]	-8.15 log2 (difference from the parental peptide)
chain 1 EEDDYTAYAWLTCYFT [chain 1 P10W]	-5.49 log2 (difference from the parental peptide)
chain 1 EEDDYTAYAQLTCYFT [chain 1 P10Q]	-4.62 log2 (difference from the parental peptide)
chain 1 EEDDYTAYAGLTCYFT [chain 1 P10G]	-5.87 log2 (difference from the parental peptide)
chain 1 EEDNYTAYAPLTCYFT [chain 1 D4N]	-6.19 log2 (difference from the parental peptide)
chain 1 EEDAYTAYAPLTCYFT [chain 1 D4A]	-7.31 log2 (difference from the parental peptide)
chain 1 EEDSYTAYAPLTCYFT [chain 1 D4S]	-6.83 log2 (difference from the parental peptide)
chain 1 EEDWYTAYAPLTCYFT [chain 1 D4W]	-2.57 log2 (difference from the parental peptide)
chain 1 EEDDYTAYAPLTCCFT [chain 1 Y14C]	-6.55 log2 (difference from the parental peptide)
chain 1 EEDDYTAYAPLTCWFT [chain 1 Y14W]	-0.649 log2 (difference from the parental peptide)
chain 1 EEDDYTAYAPLTCVFT [chain 1 Y14V]	-4.97 log2 (difference from the parental peptide)

Variant	enrichment
chain 1 EEDDYTAYAPLTCMFT [chain 1 Y14M]	-4.74 log2 (difference from the parental peptide)
chain 1 EEDDYTAYAPLTCLFT [chain 1 Y14L]	-6.02 log2 (difference from the parental peptide)
chain 1 EEDDYTGYAPLTCYFT [chain 1 A7G]	-2.66 log2 (difference from the parental peptide)
chain 1 EEDDYTSYAPLTCYFT [chain 1 A7S]	-0.477 log2 (difference from the parental peptide)
chain 1 EEDDYTTYAPLTCYFT [chain 1 A7T]	-3.41 log2 (difference from the parental peptide)
chain 1 EEDDYTQYAPLTCYFT [chain 1 A7Q]	2.46 log2 (difference from the parental peptide)
chain 1 EEDDYTYYAPLTCYFT [chain 1 A7Y]	-2.42 log2 (difference from the parental peptide)
chain 1 EEDDYTRYAPLTCYFT [chain 1 A7R]	2.51 log2 (difference from the parental peptide)
chain 1 EEDDYTDYAPLTCYFT [chain 1 A7D]	0.378 log2 (difference from the parental peptide)
chain 1 EEDDYTAYAPLTQYFT [chain 1 C13Q]	-7.02 log2 (difference from the parental peptide)
chain 1 EEDDYTAYAPLTTYFT [chain 1 C13T]	-4.75 log2 (difference from the parental peptide)
chain 1 EEDDYTAYAPLTYYFT [chain 1 C13Y]	-5.39 log2 (difference from the parental peptide)
chain 1 EEDDYTAYAPLTMYFT [chain 1 C13M]	-7.16 log2 (difference from the parental peptide)
chain 1 EEDDYTAYAPLTRYFT [chain 1 C13R]	-9.78 log2 (difference from the parental peptide)
chain 1 EEDDYTAYAPLTAYFT [chain 1 C13A]	-7.27 log2 (difference from the parental peptide)
chain 1 EEDDYTAYAPLTDYFT [chain 1 C13D]	-7.39 log2 (difference from the parental peptide)
chain 1 EEDDYTAYAPLTEYFT [chain 1 C13E]	-6.35 log2 (difference from the parental peptide)
chain 1 EEYDYTAYAPLTCYFT [chain 1 D3Y]	-2.01 log2 (difference from the parental peptide)
chain 1 EESDYTAYAPLTCYFT [chain 1 D3S]	-3.39 log2 (difference from the parental peptide)
chain 1 EEFDYTAYAPLTCYFT [chain 1 D3F]	-4 log2 (difference from the parental peptide)
chain 1 EENDYTAYAPLTCYFT [chain 1 D3N]	-2.85 log2 (difference from the parental peptide)
chain 1 EEADYTAYAPLTCYFT [chain 1 D3A]	-2.56 log2 (difference from the parental peptide)
chain 1 EEQDYTAYAPLTCYFT [chain 1 D3Q]	-3.22 log2 (difference from the parental peptide)

Variant	enrichment
chain 1 EEPDYTAYAPLTCYFT [chain 1 D3P]	-2.66 log2 (difference from the parental peptide)
chain 1 EEVDYTAYAPLTCYFT [chain 1 D3V]	-3.25 log2 (difference from the parental peptide)
chain 1 EEWDYTAYAPLTCYFT [chain 1 D3W]	-3.57 log2 (difference from the parental peptide)
chain 1 EEGDYTAYAPLTCYFT [chain 1 D3G]	-3.36 log2 (difference from the parental peptide)
chain 1 EEIDYTAYAPLTCYFT [chain 1 D3I]	-4.23 log2 (difference from the parental peptide)
chain 1 ETDDYTAYAPLTCYFT [chain 1 E2T]	-2.76 log2 (difference from the parental peptide)
chain 1 EQDDYTAYAPLTCYFT [chain 1 E2Q]	-3.13 log2 (difference from the parental peptide)
chain 1 ELDDYTAYAPLTCYFT [chain 1 E2L]	-2.22 log2 (difference from the parental peptide)
chain 1 EVDDYTAYAPLTCYFT [chain 1 E2V]	-1.95 log2 (difference from the parental peptide)
chain 1 ESDDYTAYAPLTCYFT [chain 1 E2S]	-2.78 log2 (difference from the parental peptide)
chain 1 EMDDYTAYAPLTCYFT [chain 1 E2M]	-2.13 log2 (difference from the parental peptide)
chain 1 EEDDYTAYAPHTCYFT [chain 1 L11H]	-1.29 log2 (difference from the parental peptide)
chain 1 EEDDYTAYAPKTCYFT [chain 1 L11K]	-0.661 log2 (difference from the parental peptide)
chain 1 EEDDYTAYAPCTCYFT [chain 1 L11C]	-1.68 log2 (difference from the parental peptide)
chain 1 EEDDYTAYAPFTCYFT [chain 1 L11F]	-4.27 log2 (difference from the parental peptide)
chain 1 EEDDYTAYAPDTCYFT [chain 1 L11D]	-8.31 log2 (difference from the parental peptide)
chain 1 EEDDYTAYAPITCYFT [chain 1 L11I]	2.18 log2 (difference from the parental peptide)
chain 1 EEDDYTAYAPMTCYFT [chain 1 L11M]	2.12 log2 (difference from the parental peptide)
chain 1 EEDDYWAYAPLTCYFT [chain 1 T6W]	0.875 log2 (difference from the parental peptide)
chain 1 EEDDYGAYAPLTCYFT [chain 1 T6G]	3.41 log2 (difference from the parental peptide)
chain 1 EEDDYAAYAPLTCYFT [chain 1 T6A]	2.46 log2 (difference from the parental peptide)
chain 1 EEDDYHAYAPLTCYFT [chain 1 T6H]	-1.17 log2 (difference from the parental peptide)
chain 1 EEDDYDAYAPLTCYFT [chain 1 T6D]	4.62 log2 (difference from the parental peptide)

Variant	enrichment
chain 1 EEDDYPAYAPLTCYFT [chain 1 T6P]	-5.02 log2 (difference from the parental peptide)
chain 1 EEDDYTAYAPLACYFT [chain 1 T12A]	-2.04 log2 (difference from the parental peptide)
chain 1 EEDDYTAYAPLHCYFT [chain 1 T12H]	-0.868 log2 (difference from the parental peptide)
chain 1 EEDDYTAYAPLFCYFT [chain 1 T12F]	-1.45 log2 (difference from the parental peptide)
chain 1 EEDDYTAYAPLWCYFT [chain 1 T12W]	0.647 log2 (difference from the parental peptide)
chain 1 EEDDYTAYAPLICYFT [chain 1 T12I]	-1.49 log2 (difference from the parental peptide)
chain 1 EEDDYTAYAPLECYFT [chain 1 T12E]	-2.48 log2 (difference from the parental peptide)
chain 1 EEDDYTAYAPLLCYFT [chain 1 T12L]	-0.228 log2 (difference from the parental peptide)
chain 1 EEDDYTAYAPLNCYFT [chain 1 T12N]	1.57 log2 (difference from the parental peptide)
chain 1 VEDDYTAYAPLTCYFT [chain 1 E1V]	-1.48 log2 (difference from the parental peptide)
chain 1 FEDDYTAYAPLTCYFT [chain 1 E1F]	-2.45 log2 (difference from the parental peptide)
chain 1 HEDDYTAYAPLTCYFT [chain 1 E1H]	-2.16 log2 (difference from the parental peptide)
chain 1 QEDDYTAYAPLTCYFT [chain 1 E1Q]	-1.24 log2 (difference from the parental peptide)
chain 1 PEDDYTAYAPLTCYFT [chain 1 E1P]	-3.07 log2 (difference from the parental peptide)
chain 1 WEDDYTAYAPLTCYFT [chain 1 E1W]	-2.32 log2 (difference from the parental peptide)
chain 1 SEDDYTAYAPLTCYFT [chain 1 E1S]	-1.56 log2 (difference from the parental peptide)
chain 1 LEDDYTAYAPLTCYFT [chain 1 E1L]	-1.81 log2 (difference from the parental peptide)
chain 1 KEDDYTAYAPLTCYFT [chain 1 E1K]	-5.3 log2 (difference from the parental peptide)
chain 1 AEDDYTAYAPLTCYFT [chain 1 E1A]	-1.47 log2 (difference from the parental peptide)
chain 1 MEDDYTAYAPLTCYFT [chain 1 E1M]	-0.363 log2 (difference from the parental peptide)
